Two molecules from US20130295073A1, “Use of pegylated recombinant human arginase for treatment of leukemia” (Bio-Cancer Treatment International Ltd., priority 2010, published 2013) can be followed below.

Assay [1] deals with Kasumi-1a, ML2, HL60, K562, NB4, ALL-SIL and Jurkat. As to the kind of experiment: Combination effect of BCT-100 with Doxorubicin on leukemia cell lines. The following applies: FIG. 7. Format: cell-based. The text has this: The combination effect of BCT-100 with Doxorubicin on various leukemia cell lines was studied. The leukemia cell lines tested were myeloid leukemia cell lines Kasumi-1a, ML2, HL60, K562, NB4 and lymphocytic leukemia cell lines ALL-SIL and Jurkat.

The subject of assay [2] is HL60 cells. As to the kind of experiment: Liver, spleen and sternum cytology of HL60-inoculated mice. Format: in vivo. The following applies: HL60-inoculated NOD/SCIDS mice; BCT-100 50 U/mice i.p. weekly for 4 weeks; doxorubicin 3 mg/kg/day i.p.; FIG. 8. How it is done: (§1) HL60 cells were injected to the tail of NOD/SCIDS mice. Treatment commenced on day 14. The animals were divided into 4 groups. The Doxorubicin group received treatment by doxorubicin, which was administrated at 3 mg/kg/day by intraperitoneal injection 3 times weekly for the first week, thereafter once per week for 4 weeks. The BCT-100 group received treatment by BCT-100, which was administrated at 50 U/mice by intraperitoneal injection weekly for 4 weeks. The combinational group received treatment of both Doxorubicin and BCT-100, administrated as described above. The control group received intraperitoneal injection of saline. […] In the control group, infiltration of leukemia in liver, spleen and sternum was observed.

Assay [3] has as its system HL60. As to the kind of experiment: IC50 of BCT-100 in leukemia cell lines. It counts as cell-based. The following applies: HL60, myeloid leukemia. From the text:
(§2) The inhibitory effect of BCT-100 in acute myeloid leukemia cells (Kasumi-1a, ML2, HL60, K562 and NB4) and T-cell leukemia cells (Jurkat, ALL-SIL, HPB-ALL and TALL-1) was studied.

For another assay, the system named is TALL-1. As to the kind of experiment: IC50 of BCT-100 in leukemia cell lines. Format: cell-based. The following applies: TALL-1, T-cell leukemia.
Source text: as §2

Assay [4] concerns NB4. As to the kind of experiment: IC50 of BCT-100 in leukemia cell lines. The following applies: NB4, myeloid leukemia. Format: cell-based.
Source text: as §2

For another assay, the system named is All-SIL. As to the kind of experiment: IC50 of BCT-100 in leukemia cell lines. Format: cell-based. The following applies: T-cell leukemia.
Source text: as §2

For a further assay, the system named is Jurkat. As to the kind of experiment: IC50 of BCT-100 in leukemia cell lines. Format: cell-based. The following applies: T-cell leukemia.
Source text: as §2

The test system of another assay is Kasumi-1a. As to the kind of experiment: IC50 of BCT-100 in leukemia cell lines. Format: cell-based. The following applies: myeloid leukemia.
Source text: as §2

Another assay has as its system ML2. As to the kind of experiment: IC50 of BCT-100 in leukemia cell lines. The following applies: ML2, myeloid leukemia. It counts as cell-based.
Source text: as §2

In another assay the test system is HPB-ALL. As to the kind of experiment: IC50 of BCT-100 in leukemia cell lines. It counts as cell-based. The following applies: T-cell leukemia.
Source text: as §2

The subject of another assay is K562. As to the kind of experiment: IC50 of BCT-100 in leukemia cell lines. The following applies: K562, myeloid leukemia. Format: cell-based.
Source text: as §2

The test system of a further assay is HL-60. As to the kind of experiment: Survival of HL60-inoculated mice. Format: in vivo. The following applies: HL-60-inoculated NOD/SCIDS mice; FIG. 9. How it is done: as §1
The effect of BCT-100 on the survival rate of HL-60-incoluated NOD/SCIDS mice was investigated. […] Thus BCT-100 can be administrated with Doxorubicin to treat leukemia, e.g., myeloid leukemia.

The subject of assay [5] is UF1. As to the kind of experiment: Cell viability in myelocytic leukemia cells. It counts as cell-based. The following applies: UF1, arsenic resistant; FIG. 1a/1b. From the text:
(§3) The effect of BCT-100 on arsenic sensitive myelocytic cell lines (NB4 and U937) as well as arsenic resistant myelocytic cell lines (HL60 and UF1) was investigated.
(§4) Both the arsenic sensitive and resistant leukemia cells responded to the BCT-100 treatment.

The subject of assay [6] is HL60. As to the kind of experiment: Cell viability in myelocytic leukemia cells. The following applies: HL60, arsenic resistant; FIG. 1a/1b. It counts as cell-based.
Source text: as §3, §4

For assay [7], the system named is U937. As to the kind of experiment: Cell viability in myelocytic leukemia cells. The following applies: U937, arsenic sensitive; FIG. 1a/1b. It counts as cell-based.
Source text: as §3, §4

The test system of assay [8] is NB4. As to the kind of experiment: Cell viability in myelocytic leukemia cells. The following applies: NB4, arsenic sensitive; FIG. 1a/1b. Format: cell-based.
Source text: as §3, §4

Another assay deals with pmTOR. As to the kind of experiment: Western blot of pmTOR expression in HL60. Format: cell-based. The following applies: FIG. 3. As to the method:
(§5) Expression of Bax and pmTOR was assessed in leukemic cell line HL60 by western blotting with or without BCT-100 treatment using monoclonal antibodies against Bax and pmTOR respectively. The same blot was stripped and probed with anti-actin antibody for loading control. Apoptosis was determined by annexin V labeling. HL60 cells were cultured in medium with or without BCT-100 and the expression of annexin V were analyzed by flow-cytometry at 8, 16, 24, and 36 hrs after BCT-100 treatment.
For orientation: A western blot detects proteins with antibodies after separation by electrophoresis.

In the next assay the test system is NB4 cells. As to the kind of experiment: Granulocytic differentiation (CD11b expression, FACS). It counts as cell-based. The following applies: NB4, within 96-hour treatment; FIG. 4a, 4b. From the text:
(§6) The induction of granulocytic differentiation in NB4 and HL60 cells was studied. […] Specifically, decrease in nuclear to cytoplasmic ratio, appearance of cytoplasmic granules, chromatin condensation and loss of nucleoli were observed.

Assay [9] deals with HL60 cells. The description is as above. Format: cell-based. The following applies: HL60, within 96-hour treatment; FIG. 4b.
Source text: as §6

Assay [10] relates to HL60 cells. As to the kind of experiment: Reorganization of promyelocytic leukemia nuclear bodies (immunostaining). The following applies: HL60, anti-promyelocytic leukemia immunostaining, vs DMSO control; FIG. 5. Format: cell-based.
Assay [11] is described as follows: Arginine depletion in preclinical study. From the text: Arginase is a manganese-containing enzyme, catalyzing the conversion of arginine to ornithine and urea, the last step of the Urea Cycle.
Assay [12] has as its system T-cell acute lymphocytic leukemia, acute myeloid leukemia, hepatocellular carcinoma and pancreatic cancer cell lines. As to the kind of experiment: IC50 of BCT-100 in various cancer cell lines. Format: cell-based. The following applies: FIG. 6. From the text: The IC50 values of BCT-100 in various cancer cell lines were investigated. The cancer cell lines being tested were T-cell acute lymphocytic leukemia, acute myeloid leukemia, hepatocellular carcinoma and pancreatic cancer.

Assay [13] deals with UF1. As to the kind of experiment: Induction of apoptosis in leukemia cells. It counts as cell-based. The following applies: UF1, arsenic resistant; FIG. 2. How it is done: (§7) The effect of BCT-100 in inducing apoptosis in both arsenic sensitive (NB4 and U937) and arsenic resistant (HL60 and UF1) leukemia cell lines was tested. […] However, the apoptosis rate was low in HL60 and UF1 cells in the presence of arsenic, as these cell lines are arsenic resistant.

Assay [14] has as its system HL60. As to the kind of experiment: Induction of apoptosis in leukemia cells. Format: cell-based. The following applies: HL60, arsenic resistant; FIG. 2. How it is done:
as §7

Assay [15] relates to U937. As to the kind of experiment: Induction of apoptosis in leukemia cells. Format: cell-based. The following applies: U937, arsenic sensitive; FIG. 2. As to the method: as §7
In assay [16] the test system is NB4. As to the kind of experiment: Induction of apoptosis in leukemia cells. It counts as cell-based. The following applies: NB4, arsenic sensitive; FIG. 2. As to the method:
as §7

A further assay relates to Bax. As to the kind of experiment: Western blot of Bax expression in HL60. Format: cell-based. The following applies: 8 hrs after treatment and afterwards, FIG. 3. How it is done: as §5

Turning to `COc1cccc2c1C(=O)c1c(O)c3c(c(O)c1C2=O)C[C@@](O)(C(=O)CO)C[C@@H]3O[C@H]1C[C@H](N)[C@H](O)[C@H](C)O1` [Doxorubicin, reference compound], the “therapeutic effect on leukemia cell lines” value in assay [1] is “effective in treating leukemia”. Further, in the assay with HL60 cells [2], the “infiltration of leukemia in liver, spleen and sternum (cytology)” value is on record as “Modest infiltration”.

B1: BCT-100: pegylated recombinant human arginase; pegylating agent may be mPEG-SPA; preparation disclosed in U.S. Ser. No. 10/518,223 (protein, UniProt P05089 1-322, looked up)
Arginase-1: MSAKSRTIGIIGAPFSKGQPRGGVEEGPTVLRKAGLLEKLKEQECDVKDYGDLPFADIPNDSPFQIVKNPRSVGKASEQLAGKVAEVKKNGRISLVLGGDHSLAIGSISGHARVHPDLGVIWVDAHTDINTPLTTTSGNLHGQPVSFLLKELKGKIPDVPGFSWVTPCISAKDIVYIGLRDVDPGEHYILKTLGIKYFSMTEVDRLGIGKVMEETLSYLLGRKKRPIHLSFDVDGLDPSFTPATGTPVVGGLTYREGLYITEEIYKTGLLSGLDIMEVNPSLGKTPEEVTRTVNTAVAITLACFGLAREGNHKPIDYLNPPK
modifications: PEGylated (mPEG-SPA)
Turning to B1, the IC50 with HL60 [3] worked out at 55 mU/mL; in the assay with TALL-1, 100 mU/mL; with NB4 [4] it was 60 mU/mL; with All-SIL, 120 mU/mL; with Jurkat it was 40 mU/mL; with Kasumi-1a it was 65 mU/mL. Also, the IC50 with ML2 came out at 65 mU/mL; in the assay with HPB-ALL it was 110 mU/mL; in the assay on K562, 25 mU/mL. In the assay with HL-60, the “survival rate and survival days” value is “increased as compared to the control group”. Moreover, the cell viability entry with UF1 [5], in the assay on HL60 [6], with U937 [7] and in the assay on NB4 [8] was “dropped with increasing amount of BCT-100” throughout. Moreover, the “therapeutic effect on leukemia cell lines” value in [1] is given as “effective in treating leukemia”. Moreover, in the assay with pmTOR, the “protein level of pmTOR” value is given as “down-regulated”. In addition, the granulocytic differentiation entry with NB4 cells and in the assay on HL60 cells [9] was “induced granulocytic differentiation” throughout. Also, the “pattern of promyelocytic leukemia nuclear bodies” value in the assay with HL60 cells [10] is “the microspeckled pattern disappeared and the size and brightness of the promyelocytic leukemia bodies returned to normal”. Also, the “infiltration of leukemia in liver, spleen and sternum (cytology)” value with HL60 cells [2] is “Modest infiltration”. In addition, in [11], the arginine depletion entry is listed as “efficacious in inducing arginine depletion in dose-dependent manner”. For the same molecule, the “effectiveness in cancer cell lines” value in [12] (T-cell acute lymphocytic leukemia, acute myeloid leukemia, hepatocellular carcinoma and pancreatic cancer) is “effective”. The “times more potent in leukemia and pancreatic cancer than in hepatocellular carcinoma” value in [12] (from IC50 values) is on record as 6-10 times. In addition, the apoptosis rate result in the assay on UF1 [13], in the assay on HL60 [14], with U937 [15] and in the assay on NB4 [16] was “effective in inducing apoptosis” throughout. Besides, the Bax level result in the assay with Bax is recorded as “up-regulated”.
